Test results from patent US20090110693A1 (IMAXIO, published 2009).

B1: AVD262 fusion protein (Plasmodium yoelii MSP1.19-chicken C4 bp oligomerisation domain) (other)
chain: MRSHIASIALNNLNKSGLVGEGESKKILAKMLNMDGMDLLGVDPKHVCVDTRDIPKNAGCFRDDNGTEEWRCLLGYKKGEGNTCVENNNPTCDINNGGCDPTASCQNAESTENSKKIICTCKEPTPNAYYEGVFCSSSGSKKQGDADVCGEVAYIQSVVSDCHVPTEDVKTLLEIRKLFLEIQKLKVELQGLSKEFLEHILH
notes: Runs as a disulphide-linked heptamer of about 140 kDa without reducing agent
B2: AVD259 protein (chicken C4 bp oligomerisation domain with N-terminal leader) (other)
chain: MALKKHHENEISHHGSKKQGDADVCGEVAYIQSVVSDCHVPTEDVKTLLEIRKLFLEIQKLKVELQGLSKEFLEHILH
notes: Expressed in E. coli; On a non-reducing gel, monomer to heptamer bands are seen because disulphide formation is incomplete; the heptamer is the highest species; also called recombinant AVD259 protein

Target: the molecule itself
Test: self-association, SDS-PAGE with and without reducing agent

Protein	binding result
B1	binds
B2	binds
